Data on one molecule can be found in publication PMC11229372, “New Drosophila promoter-associated architectural protein Mzfp1 interacts with CP190 and is required for housekeeping gene expression and insulator activity”.

For one data set, the target named is T1, MBP-Mzfp1 full-length (Drosophila melanogaster, UniProt Q1LZ24 1-586).
T1 sequence: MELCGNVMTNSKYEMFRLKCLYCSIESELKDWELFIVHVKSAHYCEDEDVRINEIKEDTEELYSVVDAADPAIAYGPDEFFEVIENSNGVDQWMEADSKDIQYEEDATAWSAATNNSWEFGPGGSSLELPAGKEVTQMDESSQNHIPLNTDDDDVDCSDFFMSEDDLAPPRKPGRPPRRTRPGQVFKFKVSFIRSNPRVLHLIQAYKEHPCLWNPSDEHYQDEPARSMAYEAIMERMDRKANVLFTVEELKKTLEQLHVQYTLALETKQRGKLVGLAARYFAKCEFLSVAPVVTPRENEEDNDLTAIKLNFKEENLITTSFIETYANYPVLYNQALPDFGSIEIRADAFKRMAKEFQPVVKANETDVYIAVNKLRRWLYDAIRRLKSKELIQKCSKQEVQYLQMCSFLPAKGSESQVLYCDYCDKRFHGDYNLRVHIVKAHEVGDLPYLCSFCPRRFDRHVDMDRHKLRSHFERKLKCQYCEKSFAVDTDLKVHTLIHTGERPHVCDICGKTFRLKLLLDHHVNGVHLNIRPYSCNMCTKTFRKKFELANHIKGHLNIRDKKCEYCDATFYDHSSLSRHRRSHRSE
Nature of the data set: EMSA; 0.1 mM ZnSO4, 5 mM MgCl2, poly(dI-dC); PBS pH 8.0, 5 mM MgCl2, 0.1 mM ZnSO4, 1 mM DTT, 0.1% NP-40, 10% glycerol, poly(dI-dC), room temperature, 30 min; 5% native PAGE in 0.5x TBE. To be noted: protein: recombinant; tags: N-terminal MBP; label: Cy5; blunt. In general terms: In EMSA bound probe runs differently from free probe, usually more slowly.

The target of another data set is T2, MBP-Mzfp1 MADF1-MADF2 (Drosophila melanogaster, UniProt Q1LZ24 100-434).
T2 sequence: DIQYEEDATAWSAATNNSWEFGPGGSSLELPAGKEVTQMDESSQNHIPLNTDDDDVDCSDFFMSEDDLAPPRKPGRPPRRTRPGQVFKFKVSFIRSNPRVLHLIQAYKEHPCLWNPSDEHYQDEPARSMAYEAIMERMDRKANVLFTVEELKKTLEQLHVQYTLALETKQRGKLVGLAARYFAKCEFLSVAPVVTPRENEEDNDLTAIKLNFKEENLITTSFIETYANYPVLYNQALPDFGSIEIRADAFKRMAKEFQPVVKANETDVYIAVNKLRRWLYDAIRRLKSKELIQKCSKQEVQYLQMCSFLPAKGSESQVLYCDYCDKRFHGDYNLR
Put plainly: EMSA; no specific binding; 0.1 mM ZnSO4, poly(dI-dC); PBS pH 8.0, 5 mM MgCl2, 0.1 mM ZnSO4, 1 mM DTT, 0.1% NP-40, 10% glycerol, poly(dI-dC), room temperature, 30 min; 5% native PAGE in 0.5x TBE. Particulars: protein: recombinant; tags: MBP; label: Cy5; blunt.

B1: Mzfp1x4 (dsDNA)
DNA 1: GAATTCTAAGCTCTTTGTCGATATCTTGACACACCTATATGATTACTAAGCTCTTTGTCGATATCTTGACACACCTATATGAATTCTAAGCTCTTTGTCGATATCTTGACACACCTATATGATTACTAAGCTCTTTGTCGATATCTTGACACACCTATATGAATTCCTGCAG
DNA 2: CTGCAGGAATTCATATAGGTGTGTCAAGATATCGACAAAGAGCTTAGTAATCATATAGGTGTGTCAAGATATCGACAAAGAGCTTAGAATTCATATAGGTGTGTCAAGATATCGACAAAGAGCTTAGTAATCATATAGGTGTGTCAAGATATCGACAAAGAGCTTAGAATTC
For B1, the binding result with MBP-Mzfp1 full-length is given as “binds”; with MBP-Mzfp1 MADF1-MADF2, “no binding”.
